From patent US20240076402A1, “HUMANIZED ANTI-LIV1 ANTIBODIES FOR THE TREATMENT OF BREAST CANCER” (Seagen Inc., priority 2017, published 2024)

Experiments:
Format in all cases: in vivo, human
[1] = test system: hormone receptor-positive/HER2-negative (HR+/HER2-) LIV-1-positive LA/MBC; assay: Phase 1 study of SGN-LIV1A: anti-tumor activity per RECIST v1.1, HR+/HER2- patients; conditions: 17 efficacy evaluable HR+/HER2- patients, dose escalation
Experimental: (§1) This ongoing, phase 1 study evaluated safety, tolerability, pharmacokinetics, and anti-tumor activity of SGN-LIV1A (q3wks IV) in women with LIV-1-positive, unresectable, locally advanced or metastatic breast cancer (LA/MBC) (NCT01969643). Patients with measurable disease and >2 prior cytotoxic regimens for LA/MBC were eligible. Patients with ≥Grade 2 neuropathy were excluded. Response was assessed per RECIST v1.1; pts with stable disease (SD) or better could continue treatment until disease progression or intolerable toxicity. At completion of dose escalation in hormone receptor-positive/HER2-negative (HR+/HER2−) and triple-negative (TN) patients, expansion cohorts were opened to further evaluate safety and antitumor activity of monotherapy in TN patients. Tumor biopsies were evaluated for LIV1 expression.

[2] = test system: patients with LIV-1-positive LA/MBC, weight greater than or equal to 80 kg; assay: Phase 1 dose expansion continuation: safety of a total maximum dose of 250 mg per cycle, with or without GCSF; conditions: 2.5 mg/kg, >=200 mg up to 250 mg per cycle
Experimental: This study is a continuation of the dose expansion cohort study for SGN-LIV1A monotherapy (Part A) of the phase 1 study described in Example 1, which includes data from 22 additional administrations of SGN-LIV1A (q3wks IV). Patients were as described in Example 1. These additional administrations were conducted to assess the safety of a total maximum dose of 250 mg per cycle. Patients were dosed at 2.5 mg/kg and each of these 22 additional administrations were greater than or equal to 200 mg per cycle due to the patients having a weight greater than or equal to 80 kg.

[3] = test system: women with LIV-1-positive, unresectable, locally advanced or metastatic breast cancer (LA/MBC); assay: Phase 1 study of SGN-LIV1A: safety and tolerability
Experimental: as §1
At the completion of dose escalation, multiple expansion cohorts for SGN-LIV1A monotherapy (Part A) treatment were opened to enroll up to 15 patients each with specific breast cancer subtypes at a recommended dose level to further define the safety and antitumor activity. Following an analysis of safety and activity in the 2.0 mg/kg versus 2.5 mg/kg dose cohorts, the recommended phase 2 dose was determined to be 2.5 mg/kg (maximum dose of 200 mg per cycle)

[4] = test system: triple-negative (TN) LIV-1-positive LA/MBC; assay: Phase 1 study of SGN-LIV1A: anti-tumor activity per RECIST v1.1, triple-negative patients
Experimental: as §1

[5] = % of 69 patients, 0.5 to 2.8 mg/kg q3wks IV

SGN-LIV1A: anti-LIV-1 humanized antibody (hLIV22) conjugated to monomethyl auristatin E (MMAE) via a protease-cleavable valine-citrulline linker
patients with SD>=24 wks [1]: one
disease control rate (DCR=CR+PR+SD) ([1]; 10 SD): 59%
administrations resulting in development of neutropenia ([2]; co-administered with GCSF, 7 administrations): none
administrations resulting in development of neutropenia ([2]; not co-administered with GCSF, 5 of 15 administrations): 33.3%
febrile neutropenic events or neutropenia-associated SAEs ([3]; 2.0 mg/kg (N=26)): no febrile neutropenic events or neutropenia-associated SAEs
incidence of Grade 3 or higher neutropenia AEs ([3]; 2.5 mg/kg dose level of Part A (monotherapy)): 57%
febrile neutropenic events or neutropenia-associated SAEs ([3]; 2.5 mg/kg, doses <=200 mg (N=18)): no febrile neutropenic events or neutropenia-associated SAEs
patients experiencing SAEs associated with neutropenia ([3]; 2.5 mg/kg, doses >200 mg (N=11)): 5 of 11
febrile neutropenia ([3]; 2.5 mg/kg, doses >200 mg (N=11), includes the one treatment related death due to sepsis): 2 of 11
dose-limiting toxicities (DLTs) ([3]; 19 DLT-evaluable patients, doses of 0.5 to 2.8 mg/kg q3wks IV): No dose-limiting toxicities (DLTs) occurred
treatment-related deaths ([3]; 69 patients, total dose exceeded 200 mg per cycle, no other treatment-related deaths on-study): one treatment-related death due to sepsis
AEs >=Grade 3: anemia [3, 5]: 15%
AEs >=Grade 3: neutropenia [3, 5]: 25%
treatment-emergent AE: abdominal pain [3, 5]: 25%
treatment-emergent AE: alopecia [3, 5]: 36%
treatment-emergent AE: constipation [3, 5]: 30%
treatment-emergent AE: decreased appetite [3, 5]: 33%
treatment-emergent AE: diarrhea [3, 5]: 25%
treatment-emergent AE: fatigue [3, 5]: 59%
treatment-emergent AE: nausea [3, 5]: 51%
treatment-emergent AE: peripheral neuropathy [3, 5]: 44%
treatment-emergent AE: neutropenia ([3]; all grades, % of 69 patients, 0.5 to 2.8 mg/kg q3wks IV): 25%
patients who discontinued treatment due to AEs ([3]; of 69 patients): Seven
febrile neutropenia ([3]; of 69 patients, both had a total dose exceeding 200 mg per cycle): 2 patients
incidence of Grade 3 or higher neutropenia AEs ([3]; overall monotherapy study population): 39%
maximum tolerated dose ([3]; q3wks IV, not exceeded at the highest dose): ≥ 2.8 mg/kg
confirmed PR rate ([4]; 44 efficacy evaluable TN patients): 21%
objective response rate (ORR) ([4]; 44 efficacy evaluable TN patients (dose escalation plus expansion cohorts), 14 PR): 32%
DCR ([4]; 44 efficacy evaluable TN patients, 14 PR, 14 SD): 64%
clinical benefit rate (CBR=CR+PR+SD>=24 weeks) ([4]; 44 efficacy evaluable TN patients, 16 patients): 36%
median PFS ([4]; TN patients, 95% CI: 6.1, 17.1): 11.3 weeks
